Assay results published in paper PMC3376133, “Glutamine versus Ammonia Utilization in the NAD Synthetase Family” (PLoS ONE, 2012).

Tests used:
tt_NADS S-subunit = target: T1, tt_NADS S-subunit (Thermus thermophilus, UniProt Q72HE9); assay: coupled alcohol dehydrogenase assay, NADH at […] nm; type: biochemical; settings: ammonia as amide donor, ATP; constants possibly in Figure 3C
T1 construct: gene TT_C1538; S-subunit expressed alone in E. coli BL21/DE3, N-terminal His6-tag
T1 sequence (Q72HE9 1-281): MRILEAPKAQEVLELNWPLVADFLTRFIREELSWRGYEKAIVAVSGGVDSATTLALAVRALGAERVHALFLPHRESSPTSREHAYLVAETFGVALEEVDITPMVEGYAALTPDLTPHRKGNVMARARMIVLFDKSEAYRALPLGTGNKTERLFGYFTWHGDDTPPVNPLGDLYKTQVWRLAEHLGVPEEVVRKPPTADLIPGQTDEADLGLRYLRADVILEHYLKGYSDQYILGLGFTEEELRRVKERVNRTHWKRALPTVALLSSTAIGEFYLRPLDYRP

[1] = substrate: Nc1ncnc2c1ncn2[C@@H]1O[C@H](COP(=O)(O)OP(=O)([O-])OC[C@H]2O[C@@H]([n+]3cccc(C(=O)O)c3)[C@H](O)[C@@H]2O)[C@@H](O)[C@H]1O; assay: steady-state kinetics of NAD synthetase activity; type: biochemical, Methanocaldococcus jannaschii; settings: ammonia 4 mM, saturating ATP (2 mM), 10 mM MgCl2, pH 7.5

With `Nc1ncnc2c1ncn2[C@@H]1O[C@H](COP(=O)(O)OP(=O)([O-])OC[C@H]2O[C@@H]([n+]3cccc(C(=O)O)c3)[C@H](O)[C@@H]2O)[C@@H](O)[C@H]1O` [NaAD] the “coupled alcohol dehydrogenase assay, NADH at 340 nm” value (tt_NADS S-subunit) was “the S-subunit alone ... had a comparable NADS activity only with ammonia”.

B1: mj_NADS (Methanocaldococcus jannaschii DSM 2661) (protein)
chain: MLWGESMEEIVNKITKFIREKVEEANANGVVVGLSGGIDSSVTAYLCVKALGKDKVLGLIMPEKNTNPKDVEHAKMVAENLGIKYIISDITDILKAFGAGGYVPTREFDKIADGNLKARIRMCILYYFANKYNLLVAGTSNKSEIYVGYGTKHGDIACDIRPIGNLFKTEVKKLAKYIGVPKEIIEKPPSAGLWEGQTDEEELDIKYETLDTILKLYEKGKTPEEIHKETNIPLETINYVFDLIKKNEHKRTLPPTPEI
notes: full-length single-domain NADS, N-terminal His6-tag, pET-derived vector, E. coli BL21/DE3
With B1 the Km [1] was 130 ± 20 µM and the kcat [1] was 0.20 ± 0.01 s⁻¹.
